According to IntAct's records for PubMed 14769790:

B1: Ferredoxin-thioredoxin reductase, catalytic chain (Synechocystis sp. (strain PCC 6803 / Kazusa)), Q55389 (parent)
chain: MTSSDTQNNKTLAAMKNFAEQYAKRTDTYFCSDLSVTAVVIEGLARHKEELGSPLCPCRHYEDKEAEVKNTFWNCPCVPMRERKECHCMLFLTPDNDFAGDAQDIPMETLEEVKASMA
partner: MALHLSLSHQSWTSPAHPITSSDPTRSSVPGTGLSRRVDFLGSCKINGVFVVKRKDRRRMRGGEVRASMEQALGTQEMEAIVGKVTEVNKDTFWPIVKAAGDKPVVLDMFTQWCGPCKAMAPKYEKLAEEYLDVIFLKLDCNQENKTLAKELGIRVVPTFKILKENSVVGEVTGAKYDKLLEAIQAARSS
B2: Ferredoxin-thioredoxin reductase, catalytic chain (Synechocystis sp. (strain PCC 6803 / Kazusa)), Q55389 (parent)
chain: B1 chain
partner: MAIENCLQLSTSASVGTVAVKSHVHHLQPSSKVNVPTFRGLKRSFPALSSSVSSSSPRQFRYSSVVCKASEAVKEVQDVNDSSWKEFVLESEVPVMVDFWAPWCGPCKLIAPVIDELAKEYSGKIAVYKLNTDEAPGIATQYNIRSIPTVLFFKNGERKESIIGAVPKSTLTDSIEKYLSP
B3: Thioredoxin M-type, chloroplastic (Spinacia oleracea (Spinach)), P07591 (parent)
chain: B2 partner
partner: B1 chain

Variants of: B1
Details: with trxf_spiol trxf

Row | Variant | effect of a mutation on the interaction
1 | MTSSDTQNNKTLAAMKNFAEQYAKRTDTYFCSDLSVTAVVIEGLARHKEELGSPLCPSRHYEDKEAEVKNTFWNCPCVPMRERKECHCMLFLTPDNDFAGDAQDIPMETLEEVKASMA | increasing interaction

Variants of: B2
Details: with trxm_spiol trxm, P07591

Row | Variant | effect of a mutation on the interaction
2 | MTSSDTQNNKTLAAMKNFAEQYAKRTDTYFCSDLSVTAVVIEGLARHKEELGSPLCPCRHYEDKEAEVKNTFWNCPCVPMRERKECYCMLFLTPDNDFAGDAQDIPMETLEEVKASMA | decreasing interaction

Variants of: B3
Details: with ftrc_syny3 ftrC, Q55389

Row | Variant | effect of a mutation on the interaction
3 | MAIENCLQLSTSASVGTVAVKSHVHHLQPSSKVNVPTFRGLKRSFPALSSSVSSSSPRQFRYSSVVCKASEAVKEVQDVNDSSWKEFVLESEVPVMVDFWAPWCGPSKLIAPVIDELAKEYSGKIAVYKLNTDEAPGIATQYNIRSIPTVLFFKNGERKESIIGAVPKSTLTDSIEKYLSP | increasing interaction
